From the RNAGym collection of RNA variant scans (doi:10.1101/gr.219683.116)

B1: mRNA-splicing (parent)
chain: AGUUGCUGCUGGGAGCUCCAGCACAGUGAAAUGGACAGAAGGGCAGAGCAA

Variants of: B1
Assay: exon inclusion enrichment index; higher = more inclusion; WT1 exon 5 minigene, HEK293

First: AGUUGAAGAAGGGAGCUCCAGCACAGUGAAAUGGACAGCAGGGCAGAGCAA [C6A U7A C9A U10A A39C]
Second: AGUUGAAGAAGGGAGCUCCAGCACAGUGAAAUGGACAGACAGGCAGAGCAA [C6A U7A C9A U10A A40C G41A]
The “exon inclusion enrichment index” value of the first is lower: 0.201 for the first, 0.218 for the second.

Going from AGUUGAAGAAGGGAGCUCCAGCACAGUGAAAUGGACAGACUGGCAGAGCAA [C6A U7A C9A U10A A40C G41U] to AGUUGAAGAAGGGAGCUCCAGCACAGUGAAAUGGACAGACCGGCAGAGCAA [C6A U7A C9A U10A A40C G41C], the “exon inclusion enrichment index” value rises from 0.431 to 1.98.

Going from AGUUGAAGAAGGGAGCUCCAGCACAGUGAAAUGGACUCAAGGGCAGAGCAA [C6A U7A C9A U10A A37U G38C] to AGUUGAAGAAGGGAGCUCCAGCACAGUGAAAUGGACUUAAGGGCAGAGCAA [C6A U7A C9A U10A A37U G38U], the “exon inclusion enrichment index” value falls from 0.667 to 0.112.

First: AGUUGAAGAAGGGAGCUCCAGCACAGUGAAAUGGACUAAAGGGCAGAGCAA [C6A U7A C9A U10A A37U G38A]
Second: AGUUGAAGAAGGGAGCUCCAGCACAGUGAAAUGGGCAGAAGGGCAGAGCAA [C6A U7A C9A U10A A35G]
The “exon inclusion enrichment index” value of the first is higher: 0.258 for the first, 0.217 for the second.

Going from AGUUGAAGAAGGGAGCUCCAGCACAGUGAAAUGGCCAGAAGGGCAGAGCAA [C6A U7A C9A U10A A35C] to AGUUGAAGAAGGGAGCUCCAGCACAGUGAAAUGGUCAGAAGGGCAGAGCAA [C6A U7A C9A U10A A35U], the “exon inclusion enrichment index” value falls from 0.237 to 0.119.

Going from AGUUGAAGAAGGGAGCUCCAGCACAGUGAAAUGGACAGAAGGGCGGAGCAA [C6A U7A C9A U10A A45G] to AGUUGAAGAAGGGAGCUCCAGCACAGUGAAAUGGACAGAAGGGCUGAGCAA [C6A U7A C9A U10A A45U], the “exon inclusion enrichment index” value falls from 1.6 to 1.14.

First: AGUUGAAGAAGGGAGCUCCAGCACAGUGAAAUGGACAGAAGGGCCGAGCAA [C6A U7A C9A U10A A45C]
Second: AGUUGAAGAAGGGAGCUCCAGCACAGUGAAAUGGACGUAAGGGCAGAGCAA [C6A U7A C9A U10A A37G G38U]
The “exon inclusion enrichment index” value of the first is higher: 0.979 for the first, 0.29 for the second.

First: AGUUGAAGAAGGGAGCUCCAGCACAGUGAAAUGGACGCAAGGGCAGAGCAA [C6A U7A C9A U10A A37G G38C]
Second: AGUUGAAGAAGGGAGCUCCAGCACAGUGAAAUGGACGAAAGGGCAGAGCAA [C6A U7A C9A U10A A37G G38A]
The “exon inclusion enrichment index” value of the first is higher: 0.984 for the first, 0.801 for the second.

Compared with AGUUGAAGAAGGGAGCUCCAGCACAGUGCGAUGGACAGAAGGGCAGAGCAA [C6A U7A C9A U10A A29C A30G], AGUUGAAGAAGGGAGCUCCAGCACAGUGCUAUGGACAGAAGGGCAGAGCAA [C6A U7A C9A U10A A29C A30U] is lower in “exon inclusion enrichment index” value: 1.51 for the first, 0.34 for the second.

Compared with AGUUGAAGAAGGGAGCUCCAGCACAGUGCCAUGGACAGAAGGGCAGAGCAA [C6A U7A C9A U10A A29C A30C], AGUUGAAGAAGGGAGCUCCAGCACAGUGAAAUGGACAGAGUGGCAGAGCAA [C6A U7A C9A U10A A40G G41U] is lower in “exon inclusion enrichment index” value: 1.17 for the first, 0.576 for the second.

Going from AGUUGAAGAAGGGAGCUCCAGCACAGUGAAAUGGACAGAGCGGCAGAGCAA [C6A U7A C9A U10A A40G G41C] to AGUUGAAGAAGGGAGCUCCAGCACAGUGAAAUGGACAGAGAGGCAGAGCAA [C6A U7A C9A U10A A40G G41A], the “exon inclusion enrichment index” value falls from 2.13 to 0.23.

Going from AGUUGAAGAAGGGAGCUCCAGCACAGUGAAAUGGACAGAAGGGCUUAGCAA [C6A U7A C9A U10A A45U G46U] to AGUUGAAGAAGGGAGCUCCAGCACAGUGAAAUGGACAGAAGGGCUAAGCAA [C6A U7A C9A U10A A45U G46A], the “exon inclusion enrichment index” value rises from 0.185 to 0.485.

Going from AGUUGAAGAAGGGAGCUCCAGCACAGUGAAAUGGACAGAAGGGCUCAGCAA [C6A U7A C9A U10A A45U G46C] to AGUUGAAGAAGGGAGCUCCAGCACAGUGUAAUGGACAGAAGGGCAGAGCAA [C6A U7A C9A U10A A29U], the “exon inclusion enrichment index” value falls from 0.614 to 0.131.

Going from AGUUGAAGAAGGGAGCUCCAGCACAGUGGAAUGGACAGAAGGGCAGAGCAA [C6A U7A C9A U10A A29G] to AGUUGAAGAAGGGAGCUCCAGCACAGUGCAAUGGACAGAAGGGCAGAGCAA [C6A U7A C9A U10A A29C], the “exon inclusion enrichment index” value falls from 1.06 to 0.513.

First: AGUUGAAGAAGGGAGCUCCAGCACAGUGAAAUGGACAGAAGGGCGAAGCAA [C6A U7A C9A U10A A45G G46A]
Second: AGUUGAAGAAGGGAGCUCCAGCACAGUGAAAUGGACAGAAGGGCGCAGCAA [C6A U7A C9A U10A A45G G46C]
The “exon inclusion enrichment index” value of the first is higher: 2.3 for the first, 1.17 for the second.

Compared with AGUUGAAGAAGGGAGCUCCAGCACAGUGAAAUGGACAGAAGGGCGUAGCAA [C6A U7A C9A U10A A45G G46U], AGUUGAAGAAGGGAGCUCCAGCACAGUGUUAUGGACAGAAGGGCAGAGCAA [C6A U7A C9A U10A A29U A30U] is lower in “exon inclusion enrichment index” value: 0.543 for the first, 0.198 for the second.

Compared with AGUUGAAGAAGGGAGCUCCAGCACAGUGUCAUGGACAGAAGGGCAGAGCAA [C6A U7A C9A U10A A29U A30C], AGUUGAAGAAGGGAGCUCCAGCACAGUGUGAUGGACAGAAGGGCAGAGCAA [C6A U7A C9A U10A A29U A30G] is higher in “exon inclusion enrichment index” value: 0.665 for the first, 0.739 for the second.

Going from AGUUGAAGAAGGGAGCUCCAGCACAGUGAACAGGACAGAAGGGCAGAGCAA [C6A U7A C9A U10A A31C U32A] to AGUUGAAGAAGGGAGCUCCAGCACAGUGAACCGGACAGAAGGGCAGAGCAA [C6A U7A C9A U10A A31C U32C], the “exon inclusion enrichment index” value rises from 0.428 to 1.71.

Going from AGUUGAAGAAGGGAGCUCCAGCACAGUGAACGGGACAGAAGGGCAGAGCAA [C6A U7A C9A U10A A31C U32G] to AGUUGAAGAAGGGAGCUCCAGCACAGUGAAAUGGACAGAUGGGCAGAGCAA [C6A U7A C9A U10A A40U], the “exon inclusion enrichment index” value falls from 1.02 to 0.579.

Compared with AGUUGAAGAAGGGAGCUCCAGCACAGUGAAAUGGACAGAGGGGCAGAGCAA [C6A U7A C9A U10A A40G], AGUUGAAGAAGGGAGCUCCAGCACAGUGAAAUGGACAGACGGGCAGAGCAA [C6A U7A C9A U10A A40C] is higher in “exon inclusion enrichment index” value: 0.737 for the first, 1.8 for the second.

Going from AGUUGAAGAAGGGAGCUCCAGCACAGUGAAAUGGUGAGAAGGGCAGAGCAA [C6A U7A C9A U10A A35U C36G] to AGUUGAAGAAGGGAGCUCCAGCACAGUGAAAUGGUUAGAAGGGCAGAGCAA [C6A U7A C9A U10A A35U C36U], the “exon inclusion enrichment index” value falls from 0.054 to 0.00621.

Compared with AGUUGAAGAAGGGAGCUCCAGCACAGUGAAAUGGUAAGAAGGGCAGAGCAA [C6A U7A C9A U10A A35U C36A], AGUUGAAGAAGGGAGCUCCAGCACAGUGAAAUGGACAGUCGGGCAGAGCAA [C6A U7A C9A U10A A39U A40C] is higher in “exon inclusion enrichment index” value: 0.00157 for the first, 1.19 for the second.

Compared with AGUUGAAGAAGGGAGCUCCAGCACAGUGAAAUGGACAGUUGGGCAGAGCAA [C6A U7A C9A U10A A39U A40U], AGUUGAAGAAGGGAGCUCCAGCACAGUGAAAUGGACAGUGGGGCAGAGCAA [C6A U7A C9A U10A A39U A40G] is lower in “exon inclusion enrichment index” value: 0.184 for the first, 0.0729 for the second.

Compared with AGUUGAAGAAGGGAGCUCCAGCACUUUGAAAUGGACAGAAGGGCAGAGCAA [C6A U7A C9A U10A A25U G26U], AGUUGAAGAAGGGAGCUCCAGCACUCUGAAAUGGACAGAAGGGCAGAGCAA [C6A U7A C9A U10A A25U G26C] is higher in “exon inclusion enrichment index” value: 0.734 for the first, 0.956 for the second.

First: AGUUGAAGAAGGGAGCUCCAGCACAGUGAAAUGGCAAGAAGGGCAGAGCAA [C6A U7A C9A U10A A35C C36A]
Second: AGUUGAAGAAGGGAGCUCCAGCACAGUGAAAUGGCUAGAAGGGCAGAGCAA [C6A U7A C9A U10A A35C C36U]
The “exon inclusion enrichment index” value of the first is higher: 0.329 for the first, 0.0347 for the second.

For AGUUGAAGAAGGGAGCUCCAGCACAGUGAAAUGGCGAGAAGGGCAGAGCAA [C6A U7A C9A U10A A35C C36G], the “exon inclusion enrichment index” value was 0.657.
